Data on one molecule can be found in US20070134248A1.

The target in this assay is KV4-1 Id proteins. Nature of the assay: ELISA. A general note: In an ELISA, binding on a coated surface is turned into a signal by an enzyme label.

B1: mAb clone 12C3 (antibody, V domains shown)
VH: EVKLVESGGGLVQPGGSLSLSCAASGFTYTDYYMNWVRQPPGKALEWLALIRNKANGYTTEYSASLKGRFTISRDNSQSILYLQMNALRAEDSATYYCVRENINYYFDYWGQGTTLTVSS
VL: DIVLTQSPASLAVSLGQRATISCRASESVEYFGASLMQWYQQKSGQPPKLLIRAATNVESGVPARFSGSGSGTDFSLNIHPVEEDDIAMYFCQQSRKVPWTFGGGTKLEIKR
For B1, the KV4-1 Id proteins recognized / tested (of 41 Id proteins) came out at 35.
